Measured values as given in patent US20170173105A1, “AUTOASSEMBLING PEPTIDES FOR THE TREATMENT OF PULMONARY LEAKAGE” (3-D MATRIX, LTD., priority 2014, published 2017).

Experiments:
Assay type in all cases: physicochemical
[1] = pH and appearance of 2.5% peptide solutions after adding 0.1 N NaOH
Method: To adjust the pH level of the peptide solutions by way of example, 0.1 N NaOH was added to 2 mL of 2.5% peptide solutions and their pH and appearance were measured.

[2] = Rheological properties of pH adjusted peptide solutions and hydrogels (stress/frequency sweep)
Method: Based on the visual observation of the effect of pH level on the properties of the peptide solutions, the effect on the rheological properties of the peptide solutions after adjusting their pH level to 3.4 (PuraMatrix® and KLD12) or 3.7 (IEIK13) was evaluated. If the pH levels of peptide solutions are higher than 3.5 (PuraMatrix® and KLD12) or 3.7 (IEIK13), the peptide solution began phase separation becoming cloudy. The rheological properties of PuraMatrix®, KLD12 and IEIK13 solutions were higher at pH 3.4. The results are shown in FIG. 2 for KLD12 1%, FIG. 3 for IEIK13 1%, and FIGS. 4-5 for PuraMatrix® 1% and 2.5%, respectively. Stress sweep tests were performed at 10 rad/s. Frequency sweep tests were performed at 1 Pa.
Based on the results of the effect on the rheological properties of the peptide solutions after adjusting their pH level to 3.4 (PuraMatrix® and KLD12) or 3.7 (IEIK13), the effect on the rheological properties of the peptide solutions at various pH levels was evaluated. […] The rheological properties of peptides were evaluated at various concentrations using a rheometer (DHR-1, TA Instruments) with 20 mm plates. The results are shown in FIG. 6A for PuraMatrix® 2.5% solution and FIG. 6B for IEIK13 1.5% solution, respectively. Frequency sweep tests were performed from 1 rad/sec to 10 rad/sec at 1 Pa and the storage modulus at 1 rad/sec was selected for data.
Based on the results of the effect on the rheological properties of the peptide solutions after adjusting their pH level, the effect on the rheological properties of the peptide hydrogels at various pH after DMEM treatment was evaluated and compared to the effect on the rheological properties of the peptide solutions at various pH before DMEM treatment. […] The results are shown in FIGS. 7A-7B for PuraMatrix® and FIGS. 8A-8B for IEIK (SEQ ID NO: 5), respectively. Frequency sweep tests were performed from 1 rad/sec to 10 rad/sec at 1 Pa and the storage modulus at 1 rad/sec was selected for data.

[3] = Appearance of 1.5% peptide solutions with various salts at room temperature; settings: for Appearance: room temperature
Method: The effect of salt ionic strength level on the properties of peptide solutions was evaluated to identify optimized salt ionic strength levels for the peptides as described herein. Increasing the salt ionic strength level of PuraMatrix® and other peptides may generally improve its function and mechanical strength for various clinical applications. To adjust the salt ionic strength of the peptide solutions by way of example, various salt buffer solutions including NaCl, KCl, MgCl2, CaCl2 and DPBS (10×) were added to 2 mL of 1.5% peptide solutions.

[4] = Gelation of peptide solutions on saline buffer treatment (time sweep); settings: saline buffer (0.15 M of NaCl); IEIK13 1.5%, KLD12 1.5%, PuraMatrix 2.5%
Method: The effect of salt ionic strength level surrounding peptide solution on the properties of peptide solutions was evaluated to identify the possibility of peptide gelation when the peptide solution is placed into the environment where salt ionic strength level is high. […] Without pH effect, the effect of saline treatment on gelation of peptide solutions were evaluated. […] This is because IEIK13 is much more sensitive to salt ionic strength levels. Fast gelation of IEIK13 at the salt ionic strength level similar to body fluid isotonic salt level may generally improve its function and gelation speed for various clinical applications. The results are shown in FIG. 19 for IEIK13, KLD12 and PuraMatrix® solutions. Time sweep tests were performed at 1 rad/sec and at 1 Pa with 20 mm plates and 500 μm gap distance. […]

[5] = 0.1 N NaOH 0 μL/mL added in 2.5% solution, conc. 2.5%
[6] = 0.1 N NaOH 50 μL/mL added in 2.5% solution, conc. 2.38%
[7] = 0.1 N NaOH 100 μL/mL added in 2.5% solution, conc. 2.27%
[8] = pH increase up to approximately 3.5 or less with 0.1 N NaOH, 2.5% solutions

Arg-Ala-Asp-Ala-Arg-Ala-Asp-Ala-Arg-Ala-Asp-Ala-Arg-Ala-Asp-Ala [PuraMatrix ®]
Appearance [1, 5]: Clear, thick gel | Peptide solution pH [1, 5]: 2.2 | Appearance [1, 6]: Clear, thick gel | Peptide solution pH [1, 6]: 2.3 | Appearance [1, 7]: Clear, thick gel | Peptide solution pH [1, 7]: 2.4 | Peptide solution pH ([1]; 0.1 N NaOH 150 μL/mL added in 2.5% solution, conc. 2.17%): 2.7 | Peptide solution pH ([1]; 0.1 N NaOH 200 μL/mL added in 2.5% solution, conc. 2.08%): 2.9 | Peptide solution pH ([1]; 0.1 N NaOH 250 μL/mL added in 2.5% solution, conc. 2.0%): 3.2 | Peptide solution pH ([1]; 0.1 N NaOH 275 μL/mL added in 2.5% solution, conc. 1.96%): 3.4 | Peptide solution pH ([1]; 0.1 N NaOH 300 μL/mL added in 2.5% solution, conc. 1.92%): 3.6 | Peptide solution pH ([1]; 0.1 N NaOH 350 μL/mL added in 2.5% solution, conc. 1.85%): 4.5 | Peptide solution pH ([1]; last line per peptide, NaOH volume and conc. not given): 7.0 | apparent stiffness on pH increase [1, 8]: increased | color of solution on pH increase [1, 8]: did not change the clear color | rheological property of solutions at various pH levels ([2]; PuraMatrix 2.5% solution, IEIK13 1.5% solution, storage modulus at 1 rad/sec): increases with pH adjustment up to 3.4 | rheological property of hydrogels after DMEM treatment at various pH ([2]; after DMEM treatment, storage modulus at 1 rad/sec): increases with pH adjustment up to 3.4 | rheological properties of solutions after pH adjustment ([2]; at pH 3.4 (IEIK13 adjusted to 3.7), KLD12 1%, IEIK13 1%, PuraMatrix 1% and 2.5%): higher | Appearance ([3]; CaCl2 0 M, ionic strength 0 M, PuraMatrix 1.5%): Clear, thick gel | Appearance ([3]; CaCl2 0.05 M, ionic strength 0.15 M, PuraMatrix 1.48%): Clear, thick, stiffer gel | Appearance ([3]; CaCl2 0.1 M, ionic strength 0.3 M, PuraMatrix 1.45%): Clear, thick, stiffer gel | Appearance ([3]; CaCl2 0.15 M, ionic strength 0.45 M, PuraMatrix 1.43%): Clear, thick, stiffer gel | Appearance ([3]; CaCl2 0.2 M, ionic strength 0.6 M, PuraMatrix 1.4%): Clear, thick, stiffer gel | Appearance ([3]; CaCl2 0.25 M, ionic strength 0.75 M, PuraMatrix 1.38%): Clear, thick, stiffer gel | Appearance ([3]; CaCl2 0.3 M, ionic strength 0.9 M, PuraMatrix 1.35%): Clear, thick, stiffer gel | Appearance ([3]; CaCl2 0.35 M, ionic strength 1.05 M, PuraMatrix 1.32%): Clear, thick, stiffer gel | Appearance ([3]; CaCl2 0.383 M, ionic strength 1.15 M, PuraMatrix 1.31%): Clear, thick, stiffer gel | Appearance ([3]; CaCl2 0.4 M, ionic strength 1.2 M, PuraMatrix 1.3%): Slightly cloudy, thick, stiffer gel | Appearance ([3]; CaCl2 0.417 M, ionic strength 1.25 M, PuraMatrix 1.29%): Slightly cloudy, brittle gel | Appearance ([3]; CaCl2 0.433 M, ionic strength 1.3 M, PuraMatrix 1.28%): Cloudy, phase-separated | Appearance ([3]; DPBS (pH 3.2) 0 M, ionic strength 0 M, PuraMatrix 1.5%): Clear, thick gel | Appearance ([3]; DPBS (pH 3.2) 0.15 M, ionic strength 0.15 M, PuraMatrix 1.35%): Clear, thick, stiffer gel | Appearance ([3]; DPBS (pH 3.2) 0.3 M, ionic strength 0.3 M, PuraMatrix 1.2%): Clear, thick, stiffer gel | Appearance ([3]; DPBS (pH 3.2) 0.45 M, ionic strength 0.45 M, PuraMatrix 1.05%): Clear, thick, stiffer gel | Appearance ([3]; DPBS (pH 3.2) 0.6 M, ionic strength 0.6 M, PuraMatrix 0.9%): Clear, thick, stiffer gel | Appearance ([3]; DPBS (pH 3.2) 0.75 M, ionic strength 0.75 M, PuraMatrix 0.75%): Clear, thick, stiffer gel | Appearance ([3]; DPBS (pH 3.2) 0.9 M, ionic strength 0.9 M, PuraMatrix 0.6%): Clear, thick, stiffer gel | Appearance ([3]; DPBS (pH 3.2) 0.95 M, ionic strength 0.95 M, PuraMatrix 0.55%): Slightly cloudy, brittle gel | Appearance ([3]; DPBS (pH 3.2) 1.0 M, ionic strength 1.0 M, PuraMatrix 0.5%): Cloudy, phase-separated | Appearance ([3]; KCl 0 M, ionic strength 0 M, PuraMatrix 1.5%): Clear, thick gel | Appearance ([3]; KCl 0.15 M, ionic strength 0.15 M, PuraMatrix 1.43%): Clear, thick, stiffer gel | Appearance ([3]; KCl 0.3 M, ionic strength 0.3 M, PuraMatrix 1.35%): Clear, thick, stiffer gel | Appearance ([3]; KCl 0.45 M, ionic strength 0.45 M, PuraMatrix 1.27%): Clear, thick, stiffer gel | Appearance ([3]; KCl 0.6 M, ionic strength 0.6 M, PuraMatrix 1.2%): Clear, thick, stiffer gel | Appearance ([3]; KCl 0.75 M, ionic strength 0.75 M, PuraMatrix 1.13%): Clear, thick, stiffer gel | Appearance ([3]; KCl 0.9 M, ionic strength 0.9 M, PuraMatrix 1.05%): Clear, thick, stiffer gel | Appearance ([3]; KCl 0.95 M, ionic strength 0.95 M, PuraMatrix 1.03%): Clear, thick, stiffer gel | Appearance ([3]; KCl 1.0 M, ionic strength 1.0 M, PuraMatrix 1.0%): Clear, thick, stiffer gel | Appearance ([3]; KCl 1.05 M, ionic strength 1.05 M, PuraMatrix 0.98%): Slightly cloudy, thick, stiffer gel | Appearance ([3]; KCl 1.1 M, ionic strength 1.1 M, PuraMatrix 0.95%): Slightly cloudy, brittle gel | Appearance ([3]; KCl 1.15 M, ionic strength 1.15 M, PuraMatrix 0.93%): Cloudy, phase-separated | Appearance ([3]; MgCl2 0 M, ionic strength 0 M, PuraMatrix 1.5%): Clear, thick gel | Appearance ([3]; MgCl2 0.05 M, ionic strength 0.15 M, PuraMatrix 1.48%): Clear, thick, stiffer gel | Appearance ([3]; MgCl2 0.1 M, ionic strength 0.3 M, PuraMatrix 1.45%): Clear, thick, stiffer gel | Appearance ([3]; MgCl2 0.15 M, ionic strength 0.45 M, PuraMatrix 1.43%): Clear, thick, stiffer gel | Appearance ([3]; MgCl2 0.2 M, ionic strength 0.6 M, PuraMatrix 1.4%): Clear, thick, stiffer gel | Appearance ([3]; MgCl2 0.25 M, ionic strength 0.75 M, PuraMatrix 1.38%): Clear, thick, stiffer gel | Appearance ([3]; MgCl2 0.3 M, ionic strength 0.9 M, PuraMatrix 1.35%): Clear, thick, stiffer gel | Appearance ([3]; MgCl2 0.35 M, ionic strength 1.05 M, PuraMatrix 1.32%): Clear, thick, stiffer gel | Appearance ([3]; MgCl2 0.383 M, ionic strength 1.15 M, PuraMatrix 1.31%): Clear, thick, stiffer gel | Appearance ([3]; MgCl2 0.4 M, ionic strength 1.2 M, PuraMatrix 1.3%): Slightly cloudy, thick, stiffer gel | Appearance ([3]; MgCl2 0.417 M, ionic strength 1.25 M, PuraMatrix 1.29%): Slightly cloudy, brittle gel | Appearance ([3]; MgCl2 0.433 M, ionic strength 1.3 M, PuraMatrix 1.28%): Cloudy, phase-separated | Appearance ([3]; NaCl 0 M, ionic strength 0 M, PuraMatrix 1.5%): Clear, thick gel | Appearance ([3]; NaCl 0.15 M, ionic strength 0.15 M, PuraMatrix 1.43%): Clear, thick, stiffer gel | Appearance ([3]; NaCl 0.3 M, ionic strength 0.3 M, PuraMatrix 1.35%): Clear, thick, stiffer gel | Appearance ([3]; NaCl 0.45 M, ionic strength 0.45 M, PuraMatrix 1.27%): Clear, thick, stiffer gel | Appearance ([3]; NaCl 0.6 M, ionic strength 0.6 M, PuraMatrix 1.2%): Clear, thick, stiffer gel | Appearance ([3]; NaCl 0.75 M, ionic strength 0.75 M, PuraMatrix 1.13%): Clear, thick, stiffer gel | Appearance ([3]; NaCl 0.8 M, ionic strength 0.8 M, PuraMatrix 1.10%): Clear, thick, stiffer gel | Appearance ([3]; NaCl 0.85 M, ionic strength 0.85 M, PuraMatrix 1.08%): Clear, thick, stiffer gel | Appearance ([3]; NaCl 0.9 M, ionic strength 0.9 M, PuraMatrix 1.05%): Slightly cloudy, brittle gel | Appearance ([3]; NaCl 0.95 M, ionic strength 0.95 M, PuraMatrix 1.03%): Cloudy, phase-separated | Appearance ([3]; NaCl 1.0 M, ionic strength 1.0 M, PuraMatrix 1.0%): Cloudy, phase-separated | apparent stiffness on salt ionic strength increase ([3]; up to the ionic strength at which solutions stay clear): increased | gelation after saline buffer treatment [4]: no or negligible gelation
